{"source": "patent US20230235004A1", "target": "recombinant mouse MAdCAM-1 (mouse) (UniProt Q61826)", "sequence (Q61826 22-364 limits assumed)": "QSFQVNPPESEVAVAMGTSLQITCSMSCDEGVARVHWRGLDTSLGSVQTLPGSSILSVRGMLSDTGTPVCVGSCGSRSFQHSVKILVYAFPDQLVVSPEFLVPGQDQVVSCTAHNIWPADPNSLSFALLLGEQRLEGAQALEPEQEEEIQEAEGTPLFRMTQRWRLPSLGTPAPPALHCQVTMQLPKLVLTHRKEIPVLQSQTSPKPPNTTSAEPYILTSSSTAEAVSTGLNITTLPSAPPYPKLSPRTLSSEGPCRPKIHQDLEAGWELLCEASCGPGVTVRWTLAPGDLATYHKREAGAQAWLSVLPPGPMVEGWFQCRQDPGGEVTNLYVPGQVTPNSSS", "experiment": "Octet", "data": [{"binder": "MAdCAM antibody Table 1 clone 1 (scFv) scFv: EVQLLESGGGLVQPGGSLRLSCAASGFTFSSYGMHWVRQAPGKGLEWVAVISDDGSDKYYADSVKGRFTISRDNSKNTLYLQMNSLRAEDTAVYYCTTSKYYYYYGMDVWGQGTTVTVSSGGGGSGGGGSGGGGSGGGGSDIQMTQSPSSLSASVGDRVTITCQASQDISKSLNWYQQKPGKAPKLLIYAASSLQSGVPSRFSGSGSGTDFTLTISSLQPEDFATYYCQQGYSTPLTFGGGTKVEIK", "values": [{"measurement": "MAdCAM Octet Binding", "value": 0.16}]}]}
